Consider 2 substances from patent publication US5662885A, “Peptide derived radionuclide chelators” (Resolution Pharmaceuticals Inc., priority 1994, dated 1997).

The subject of series [1] is zymosan-induced focal inflammation in left hindleg of rats. Description: Rat inflammation study: in vivo imaging and biodistribution of Tc-99m labeled conjugates. The note with it: i.v. tail vein, 30 minutes, average of two rats; for Inflam:Uninfl (target to background ratio, inflamed:uninflamed muscle): zymosan-inflamed left leg vs right leg muscle.
Experimental: (§1) Rat inflammation studies were performed as follows. 2 male Wistar rats (Charles River, 200-250 g) were injected intramuscularly with (25 mg) zymosan, a yeast cell wall suspension, into their left hindlegs 24 hours before imaging. Focal inflammation in the leg was visually detectable after 1 day.
(§2) The rats were anaesthetized with somnitol (40 to 50 mg/kg), and the labeled conjugate solution (200 μL) was injected intravenously via the tail vein. Serial whole-body scintigrams were acquired at 30 minutes. The rats were then killed with anaesthesia overdose and samples of organs, urine, blood, inflamed muscle (left leg) and non-inflamed muscle (right leg) and inflammatory exudate (fluid) were weighed and counted in either a well-type gamma counter or in a gamma dose calibrator depending upon the organ. The dose calculations were made based on the assumption that the blood volume constituted 8% of body weight. The results of the conjugates represented in the table below are averages for two rats and are corrected for the residual dose in the tail.
Series [2] shares this test system. The note with it: rat, in vivo, iv.
Experimental: as §1, §2

Starred links: 1 amine or outer side, 2 acyl side, 3 side chain; linkers in the order of their positions; H or OH if unused. Non-standard residues stand in square brackets, D forms with d. No end group written: not given here. *: point of attachment. Cys(Acm) = CC(=O)NCSC[C@H](N[*:1])C(=O)[*:2]; Me2Gly = CN(C)CC(=O)*

Turning to “N,N-dimethylGly-Thr-Cys(Acm)-Gly-Thr-Lys-Pro-Pro-Arg ([Me2Gly]T[Cys(Acm)]GTKPPR; also: 99mTc label via N,N-dimethylGly/Cys(Acm) chelator) [N,N-dimethylGly-Thr-Cys(Acm)-GTKPPR-OH]”, in series [1], the “Fluid:Blood (inflammatory exudate:blood)” value was determined as 1.6 and the “Inflam:Uninfl (target to background ratio, inflamed:uninflamed muscle)” value came to 4.6. Besides, in series [2], the “GI Tract (% dose)” value is reported as 2.5 % dose, the “Liver (% dose)” value was found to be 2.4 % dose and the “Urine (% dose)” value is 68.5 % dose.

For the substance “N,N-dimethylGly-Ser-Cys(Acm)-Gly-Thr-Lys-Pro-Pro-Arg-OH ([Me2Gly]S[Cys(Acm)]GTKPPR-OH; also: 99mTc label via N,N-dimethylGly-Ser-Cys(Acm) chelator) [N,N-dimethylGly-Ser-Cys(Acm)-GTKPPR-OH]”, in series [1], the “Fluid:Blood (inflammatory exudate:blood)” value is listed as 1.9 and the “Inflam:Uninfl (target to background ratio, inflamed:uninflamed muscle)” value turned out to be 5.3. Besides, in series [2], the “GI Tract (% dose)” value came to 2.8 % dose, the “Liver (% dose)” value turned out to be 2.4 % dose and the “Urine (% dose)” value is recorded as 63.5 % dose.
